Biological target: mouse TNFR1 on L929 cells (mouse) (UniProt P25118)
Test: cell-based or functional assay

mouse TNFR1 on L929 cells (mouse), sequence (P25118 30-454): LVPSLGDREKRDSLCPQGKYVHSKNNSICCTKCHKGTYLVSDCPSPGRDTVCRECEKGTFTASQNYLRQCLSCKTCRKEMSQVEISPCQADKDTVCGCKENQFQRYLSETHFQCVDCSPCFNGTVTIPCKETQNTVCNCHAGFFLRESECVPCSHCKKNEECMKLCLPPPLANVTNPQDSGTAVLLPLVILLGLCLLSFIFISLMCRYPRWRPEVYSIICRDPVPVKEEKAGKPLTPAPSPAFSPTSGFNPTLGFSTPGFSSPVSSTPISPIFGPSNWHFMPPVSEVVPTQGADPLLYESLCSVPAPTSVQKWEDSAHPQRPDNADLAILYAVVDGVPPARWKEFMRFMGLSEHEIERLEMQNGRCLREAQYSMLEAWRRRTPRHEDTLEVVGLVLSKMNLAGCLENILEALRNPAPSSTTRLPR

Substance	ND50, L929 cytotoxicity without TNF-α (agonism) [nM]
anti-TNFR1 antibody MAB430 (R&D Systems)	10
anti-TNFR1 antibody AF-425-PB (R&D Systems)	0.1
